In US8715970B2, “Enzymatically catalyzed method of preparing mono-acylated polyols” (BASF SE, priority 2009, dated 2014) one finds Initial reaction rates data, which are given here for 1 molecule.

Assay [1] in a line: Enzyme selectivities and specificities towards 1,2-ethanediol with vinyl acetate or vinyl butyrate in MTBE (Example 7). In kind it is biochemical. The protocol:
(§1) Reactions using the CALB mutants as described in Example 5 and Example 6 were run with two different straight chain primary diols: 1,2-ethanediol, ≧99.5% from MERCK and 1,4-butanediol, ≧99% from Aldrich. Two different acyl donors were used: vinyl acetate, ≧99% from Fluka and vinyl butyrate, >99% from Fluka. Decane, ≧99% from Fluka, was used as internal standard. MTBE, 99.5% from Lab-Scan was used as solvent.
(§2) Each diol was dissolved to a concentration of 100 mM together with 1 M of the acyl donor and 20 mM decane in MTBE. Reactions were started by adding 3 ml reaction solution to a specific amount of enzyme carrier beads. Different amounts of enzyme carrier beads were used for the different reactions. For reactions with 1,2-ethanediol and vinyl acetate, 19.7 mg wild type, 22.5 mg A282L, 50.5 mg A281V, and 45.5 A281E CALB were used. […]
(§3) All reactions were analyzed on GC, Hewlett Packard 5890 series II. Two different 25 m×0.32 mm WCOT fused silica columns were used, depending on the different substrates and products that were analyzed. […] The response factor for each diol was determined in relationship to decane. When all diol and mono-ester had converted to di-ester, the response factor for the di-ester could be determined in relationship to decane. The concentration of mono-ester in each reaction was determined by subtracting the concentration of di-ester from the starting concentration of diol.

The nature of assay [2]: Enzyme selectivities and specificities towards 1,4-butanediol with vinyl acetate or vinyl butyrate in MTBE (Example 7). In kind it is biochemical. The protocol: as §1, §2, §3

B1: WT: non-mutated Candida antarctica lipase B (CALB), SEQ ID NO: 2, immobilized on carrier beads (protein, listed as Candida antarctica)
chain: LPSGSDPAFSQPKSVLDAGLTCQGASPSSVSKPILLVPGTGTTGPQSFDSNWIPLSAQLGYTPCWISPPPFMLNDTQVNTEYMVNAITTLYAGSGNNKLPVLTWSQGGLVAQWGLTFFPSIRSKVDRLMAFAPDYKGTVLAGPLDALAVSAPSVWQQTTGSALTTALRNAGGLTQIVPTTNLYSATDEIVQPQVSNSPLDSSYLFNGKNVQAQAVCGPLFVIDHAGSLTSQFSYVVGRSALRSTTGQARSADYGITDCNPLPANDLTPEQKVAAAALLAPAAAAIVAGPKQNCEPDLMPYARPFAVGKRTCSGIVTP
modifications: immobilized on carrier beads
In the case of B1, the Initial reaction rates was determined as 0.21 mol/g/min in assay [1] (vinyl acetate), 0.36 mol/g/min in assay [1] (vinyl butyrate), 0.12 mol/g/min in assay [2] (vinyl acetate) and 0.24 mol/g/min in assay [2] (vinyl butyrate).
